Data taken from patent US20230117205A1, “B7-H4 ANTIBODY-DRUG CONJUGATES FOR THE TREATMENT OF CANCER” (SEAGEN INC., priority 2021, published 2023).

Legend:
human B7-H4 on cells [1] = target: T1, human B7-H4 on cells (human, UniProt Q7Z7D3 25-282); assay: cell-based or functional assay
T1 sequence: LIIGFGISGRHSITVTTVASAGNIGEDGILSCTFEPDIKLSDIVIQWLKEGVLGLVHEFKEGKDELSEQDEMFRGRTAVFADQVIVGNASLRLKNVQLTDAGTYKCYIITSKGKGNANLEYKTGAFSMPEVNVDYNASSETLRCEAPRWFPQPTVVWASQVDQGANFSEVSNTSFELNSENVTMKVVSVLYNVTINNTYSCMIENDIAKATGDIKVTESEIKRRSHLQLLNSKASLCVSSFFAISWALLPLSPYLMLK

[2] = target: hFcγRI (biotinylated avi-tagged, fused with monomeric Fc) (human) (UniProt P12314); assay: BLI (Octet HTX), biotinylated hFcγRI on streptavidin biosensors, antibody in solution, 30 C, 1:1 fit
Sequence of hFcγRI (biotinylated avi-tagged, fused with monomeric Fc) (human) (P12314 16-292): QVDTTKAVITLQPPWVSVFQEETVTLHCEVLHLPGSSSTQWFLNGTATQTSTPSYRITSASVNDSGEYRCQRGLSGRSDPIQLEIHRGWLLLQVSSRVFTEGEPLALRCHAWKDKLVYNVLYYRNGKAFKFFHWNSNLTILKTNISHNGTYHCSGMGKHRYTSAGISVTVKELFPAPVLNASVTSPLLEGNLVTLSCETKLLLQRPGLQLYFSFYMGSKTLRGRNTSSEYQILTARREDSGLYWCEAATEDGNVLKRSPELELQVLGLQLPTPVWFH

[3] = target: hscFcRN (biotinylated avi-tagged, fused with monomeric Fc) (human) (UniProt P55899); assay: BLI (Octet HTX), biotinylated hscFcRN on streptavidin biosensors, antibody in solution, pH 6.0, 30 C, 1:1 fit
Sequence of hscFcRN (biotinylated avi-tagged, fused with monomeric Fc) (human) (P55899 24-297 limits assumed, form in doubt, chain 1 of 2): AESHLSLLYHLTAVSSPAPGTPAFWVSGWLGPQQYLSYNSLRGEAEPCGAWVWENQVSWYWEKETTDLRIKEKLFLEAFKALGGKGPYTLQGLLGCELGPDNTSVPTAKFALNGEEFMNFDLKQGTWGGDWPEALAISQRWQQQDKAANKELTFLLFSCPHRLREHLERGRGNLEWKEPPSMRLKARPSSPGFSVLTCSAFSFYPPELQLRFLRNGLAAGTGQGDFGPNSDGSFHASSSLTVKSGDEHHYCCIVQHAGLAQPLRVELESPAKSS
Sequence of hscFcRN (biotinylated avi-tagged, fused with monomeric Fc) (human) (chain, as listed by the source limits assumed, form in doubt, chain 2 of 2): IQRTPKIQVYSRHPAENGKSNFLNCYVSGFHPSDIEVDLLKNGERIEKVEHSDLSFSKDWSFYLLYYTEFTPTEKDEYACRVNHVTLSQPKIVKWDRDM

[4] = target: hFcγRIIIa V158 (biotinylated avi-tagged, fused with monomeric Fc) (human) (UniProt P08637); assay: BLI (Octet HTX), biotinylated hFcγRIIIa V158 on streptavidin biosensors, antibody in solution, 30 C, 1:1 fit
Sequence of hFcγRIIIa V158 (biotinylated avi-tagged, fused with monomeric Fc) (human) (P08637 17-208 F176V): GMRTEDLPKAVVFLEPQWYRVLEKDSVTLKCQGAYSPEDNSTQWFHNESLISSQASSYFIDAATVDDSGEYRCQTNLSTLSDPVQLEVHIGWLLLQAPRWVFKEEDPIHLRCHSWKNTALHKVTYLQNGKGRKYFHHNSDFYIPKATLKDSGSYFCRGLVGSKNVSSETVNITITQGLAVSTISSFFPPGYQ

[5] = target: hFcγRIIa R131 (biotinylated avi-tagged, fused with monomeric Fc) (human) (UniProt P12318); assay: BLI (Octet HTX), biotinylated hFcγRIIa R131 on streptavidin biosensors, antibody in solution, 30 C, 1:1 fit
Sequence of hFcγRIIa R131 (biotinylated avi-tagged, fused with monomeric Fc) (human) (P12318 34-217 H167R): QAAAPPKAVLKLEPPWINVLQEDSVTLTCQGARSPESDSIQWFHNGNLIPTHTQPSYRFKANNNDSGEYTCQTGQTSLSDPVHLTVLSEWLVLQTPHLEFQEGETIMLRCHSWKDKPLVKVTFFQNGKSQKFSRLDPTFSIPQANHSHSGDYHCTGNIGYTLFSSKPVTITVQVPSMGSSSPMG

[6] = target: hFcγRIIIa F158 (biotinylated avi-tagged, fused with monomeric Fc) (human) (UniProt P08637); assay: BLI (Octet HTX), biotinylated hFcγRIIIa F158 on streptavidin biosensors, antibody in solution, 30 C, 1:1 fit
[7] = target: hFcγRIIb (biotinylated avi-tagged, fused with monomeric Fc) (human) (UniProt P31994); assay: BLI (Octet HTX), biotinylated hFcγRIIb on streptavidin biosensors, antibody in solution, 30 C, 1:1 fit
Sequence of hFcγRIIb (biotinylated avi-tagged, fused with monomeric Fc) (human) (P31994 43-217): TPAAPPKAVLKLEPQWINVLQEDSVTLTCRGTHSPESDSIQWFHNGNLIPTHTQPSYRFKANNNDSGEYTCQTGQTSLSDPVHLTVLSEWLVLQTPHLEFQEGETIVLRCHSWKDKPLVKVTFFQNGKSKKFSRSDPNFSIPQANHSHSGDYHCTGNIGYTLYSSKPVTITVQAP

[8] = target: hFcγRIIIa F158 (biotinylated avi-tagged, fused with monomeric Fc) (human) (UniProt P08637); assay: BLI (Octet HTX), biotinylated hFcγRIIIa F158 on streptavidin biosensors, ADC in solution, 30 C, 1:1 fit
[9] = target: hFcγRIIa H131 (biotinylated avi-tagged, fused with monomeric Fc) (human) (UniProt P12318); assay: BLI (Octet HTX), biotinylated hFcγRIIa H131 on streptavidin biosensors, ADC in solution, 30 C, 1:1 fit
human B7-H4 on cells [10] = target: T1, human B7-H4 on cells; assay: IHC on cell pellets, MDA-MB-468 cells that express B7-H4 endogenously
human B7-H4 on cells [11] = target: T1, human B7-H4 on cells; assay: IHC on cell pellets, HCC1954 cells that express B7-H4 endogenously
human B7-H4 on cells [12] = target: T1, human B7-H4 on cells; assay: IHC on cell pellets, HCC1569 cells that express B7-H4 endogenously
human B7-H4 on cells [13] = target: T1, human B7-H4 on cells; assay: IHC on cell pellets, ZR-75-30 cells that express B7-H4 endogenously
human B7-H4 on cells [14] = target: T1, human B7-H4 on cells; assay: IHC on cell pellets, SKBR3 cells that express B7-H4 endogenously

non-binding control ADC (antibody) was tested, and the x50 (ng/mL), in vitro cytotoxicity, MDA-MB-468, 96 h, 3D spheroid, CellTiter-Glo (human B7-H4 on cells [1]) was over 1000 ng/mL, the x50 (ng/mL), in vitro cytotoxicity, MX1, 96 h, 3D spheroid, CellTiter-Glo (human B7-H4 on cells [1]) was over 1000 ng/mL and the x50 (ng/mL), in vitro cytotoxicity, SKBR3, 96 h, 3D spheroid, CellTiter-Glo (human B7-H4 on cells [1]) was over 1000 ng/mL.

“positive control mAb (the anti-CD70 mAb h1F6) (antibody)” showed a Kd [2] of 0.0018 µM, a Kd [3] of 0.0103 µM and a Kd [4] of 0.78 µM. It also gave a Kd [5] of 3.1 µM, a Kd [6] of 4.8 µM and a Kd [7] of 29 µM.

Molecule SGN-B7H4V (antibody) has a Kd [8] of 10.4 µM and a Kd [9] of 4.2 µM.

With anti-B7-H4 antibody clone D1M8I the intensity score (human B7-H4 on cells [10]) was 3, the intensity score (human B7-H4 on cells [11]) was 2 and the intensity score (human B7-H4 on cells [12]) was 3. It also gave an intensity score (human B7-H4 on cells [13]) of 1 and an intensity score (human B7-H4 on cells [14]) of 3.

B1: B7H41001 mAb quenched fluorophore conjugate (antibody, human IgG1, kappa, V domains shown)
VH: QLQLQESGPGLVKPSETLSLTCTVSGGSIKSGSYYWGWIRQPPGKGLEWIGNIYYSGSTYYNPSLRSRVTISVDTSKNQFSLKLSSVTAADTAVYYCAREGSYPNQFDPWGQGTLVTVSS
VL: EIVMTQSPATLSVSPGERATLSCRASQSVSSNLAWYQQKPGQAPRLLIYGASTRATGIPARFSGSGSGTEFTLTISSLQSEDFAVYYCQQYHSFPFTFGGGTKVEIKR
modifications: Cy5 dye and quencher pair attached by the same vc linker as in SGN-B7H4V; sites not stated
B1 was tested, and the “apparent half-life of the increase of fluorescent signal (internalization, quenched fluorophore assay on SKBR3 and MX-1 cells)” value (human B7-H4 on cells [1]) was 3.2 to 4.9 h.
